The target of one experiment is T1, BSA (bovine, UniProt P02769).
T1 construct: also called BSA background
Put plainly: ELISA, BSA as background. An excerpt:
This reaction solution was subjected to 2% agarose gel electrophoresis to analyze the reaction products. Reaction products with the correct molecular weights were ligated into a pCR 2.1-TOPO vector (manufactured by Invitrogen) for subcloning in accordance with the attached instruction manual. M13 forward (5′-[…]-3′(SEQ ID NO: 11) and M13 reverse (5′-CAG GAAACA GCT ATG AC-3′ (SEQ ID NO: 12)) primers were then used to determine the nucleotide sequence. Every mutation clone with the correct sequences was digested with restriction enzymes BamHI and XhoI, and the digestion products were subjected to 2% agarose gel electrophoresis. The insertion fragment of each mutant was cut from the agarose gel and purified with a Gene Clean Kit in accordance with the attached instruction manual provided by the manufacturer (BIO101). The BamHI and XhoI DNA fragment of each mutant was ligated to the BamHI and XhoI sites of an E. coli expression vector pTRC His A (Invitrogen). The resulting plasmid was transformed into E. coli BL21 Rosseta. The ENO1 mutation protein was expressed in E. coli by IPTG induction and purified by Ni-agarose in accordance with the attached instruction manual provided by the manufacturer (Qiagen) after the bacteria pellet was sonicated. The purity of each mutant was analyzed by 12% SDS PAGE. […] The binding affinity was determined by the readings of OD 405. […]
(ELISA stands for enzyme-linked immunosorbent assay.)

Experiment [1] addresses ENO1 deletion mutant Δ1-189 (human) (UniProt P06733). Put plainly: ELISA on coated mutant protein, 10 microgram EN10 mAb.
For experiment [2], the target named is ENO1 deletion mutant Δ1-297 (human) (UniProt P06733). The description is as above.
In experiment [3] the target is ENO1 deletion Δ297-434 mutant (human) (UniProt P06733). Put plainly: ELISA on coated ENO1 protein or mutant, 10 microgram EN10 mAb.
ENO1 deletion Δ297-434 mutant (human), sequence (P06733 1-296, stated change not applied): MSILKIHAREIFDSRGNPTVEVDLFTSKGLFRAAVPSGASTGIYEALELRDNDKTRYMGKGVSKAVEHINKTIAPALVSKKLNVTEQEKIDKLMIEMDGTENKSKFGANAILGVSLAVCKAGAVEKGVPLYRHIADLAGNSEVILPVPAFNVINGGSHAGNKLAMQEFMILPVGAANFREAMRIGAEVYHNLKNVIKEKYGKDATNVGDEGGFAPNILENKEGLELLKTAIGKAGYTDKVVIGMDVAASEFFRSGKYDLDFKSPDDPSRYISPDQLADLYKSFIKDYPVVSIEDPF

T1 sequence (P02769 25-607 limits assumed): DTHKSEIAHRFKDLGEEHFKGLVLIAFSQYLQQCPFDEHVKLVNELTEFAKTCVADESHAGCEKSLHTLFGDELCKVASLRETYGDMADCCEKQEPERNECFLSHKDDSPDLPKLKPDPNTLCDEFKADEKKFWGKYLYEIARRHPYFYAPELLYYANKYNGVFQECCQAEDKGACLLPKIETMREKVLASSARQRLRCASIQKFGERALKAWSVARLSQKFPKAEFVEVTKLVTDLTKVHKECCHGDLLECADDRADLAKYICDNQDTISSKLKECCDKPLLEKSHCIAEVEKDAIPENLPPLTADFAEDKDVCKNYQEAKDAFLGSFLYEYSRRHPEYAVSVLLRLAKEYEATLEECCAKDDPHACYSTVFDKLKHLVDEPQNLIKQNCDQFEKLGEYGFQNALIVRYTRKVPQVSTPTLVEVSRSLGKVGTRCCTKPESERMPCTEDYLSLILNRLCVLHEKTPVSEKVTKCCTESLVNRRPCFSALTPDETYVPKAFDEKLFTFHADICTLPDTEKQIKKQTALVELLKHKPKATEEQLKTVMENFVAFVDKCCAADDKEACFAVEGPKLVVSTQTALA

B1: EN10 mAb (antibody, V domains shown)
VH: EVQLQQSGPELVKPGASVKMSCKASGYTFTSCVMNWVKQKPGQGLEWIGYINPYNDGTKYNEKFKGKATLTSDKSSSTAYMELSSLTSEDSAVYYCAREGFYYGNFDNWGQGTTLTVSS
VL: DIQMTQSPASLSASVGETVTITCRASENIYSYLTWYQQKQGKSPQLLVYNAKTLPEGVPSRFSGSGSGTQFSLKINSLQPEDFGSYYCQHHYGTPYTFGGGTKLEITR
notes: also called clone 10; anti-human ENO1 antibody clones 10
As for B1, in the experiment with BSA, the binding result was “no binding (tested: 10 microgram EN10 mAb (amount))”. Besides, in experiment [1], the OD405 turned out to be 1.43 OD405 and the percent of the OD405 of wild type ENO1 is 42%. In experiment [2], this molecule gave an OD405 of 1.56 OD405 and a percent of the OD405 of wild type ENO1 of 39%. Besides, in experiment [3], the OD450 worked out at 0.47.

The values above are taken from patent publication US20150183884A1 (NATIONAL HEALTH RESEARCH INSTITUTES, published 2015).
